Laboratory results from paper PMC3206353 (The Journal of Cell Biology, 2011).

Experiments:
[1] = target: pyrene-labeled ADP-actin filaments (chicken breast muscle actin) (chicken, UniProt P68139 1-377, pyrene (pyrene iodoacetamide) on cysteine-374); assay: other fluorescence titration
[2] = target: Mg-ATP-actin monomer (chicken breast muscle actin) (chicken, UniProt P68139 1-377); assay: inhibition of nucleotide exchange

Ka of the cooperative model (Kd = 1/(ω*Ka)) [1]: 0.08 µM⁻¹
Kd [1]: 890 nM
Kd [2]: 170 nM
B1: cofilin-M3 (natural protein)
chain: MSFSGVKVSPECLEAFQELKLGKSLRYVVFKMNDTKTEIVVEKKSTDKDFDTFLGDLPEKDCRYAIYDFEFNLGEGVRNKIIFISWSPDVAPIKSKMVYSSSKDTLRRAFTGIGTDIQATDFSEVAYETVLAAVTRK
